Data as given in patent US20240294622A1 (SUZHOU TRANSCENTA THERAPEUTICS, published 2024).

How the values were obtained:
HGREM1-His (ACRO) [1] = target: T1, HGREM1-His (ACRO) (human, UniProt O60565 25-184); test: ELISA on coated Gremlin-his; unit from the axis Ab(nM)
T1 construct: Lys25-Asp184 of NP_037504 with C-terminal polyhistidine tag (ACRO GR1-H52H3); they are put here; also called hGREM1 (ACRO); human gremlin (ACRO)
T1 sequence: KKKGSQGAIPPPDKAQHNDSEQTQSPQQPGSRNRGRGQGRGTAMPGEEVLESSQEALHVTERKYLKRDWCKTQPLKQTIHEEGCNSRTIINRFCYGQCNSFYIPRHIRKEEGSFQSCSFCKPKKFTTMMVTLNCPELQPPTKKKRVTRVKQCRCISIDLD
Experimental: Clear polystyrene plates (BEAVER) were coated with 100 μl/well of a 0.5 μg/ml human gremlin (ACRO) and DAN (Sinobiological) in high pH coating buffer overnight at 4° C. Then the plates were washed once on an automatic plate washer using PBS+0.1% Tween 20 (Sigma). 100 μl of block solution consisting of PBS+1% BSA+1% normal goat serum+0.5% Tween 20 (Sigma) was added to each well and incubated at room temperature for 2 hours. Then 100 ul of antibodies (hybridoma or chimeric antibody 36F5, chimeric antibody 67G11, chimeric antibody 42B9) in antibody dilution buffer containing PBS+1% BSA+1% normal goat serum+0.01% Tween 20 starting from 2 μg/ml (13.33 nM) and then 4 fold serial dilution were added to each well of the plate and incubated for 1 hours at room temperature. Afterward the plates were washed three times with 200 ul of PBS+0.1% Tween20 followed by adding 100 μl/well 1:10000 Goat anti mouse IgG-HRP or mouse anti-human IgG-HRP (abcam), and incubate for 1 hour at room temperature. They were then washed 3× with PBS+0.1% Tween20. Finally, 100 μl/well of TMB (InnoReagents) was added to each well and after 2 minutes add 50 ul of stop solution to each well. The plates were read on a Multiscan FC microplate reader (Thermo Scientific) at 450 nm.

Mouse Gremlin-His (R&D) = target: T2, Mouse Gremlin-His (R&D) (mouse, UniProt O70326 25-184); test: ELISA, coated mouse gremlin (R&D)
T2 construct: Lys25-Asp184 with 10xHis, R&D 956-GR; also called mouse gremlin (R&D); mGREM1
T2 sequence: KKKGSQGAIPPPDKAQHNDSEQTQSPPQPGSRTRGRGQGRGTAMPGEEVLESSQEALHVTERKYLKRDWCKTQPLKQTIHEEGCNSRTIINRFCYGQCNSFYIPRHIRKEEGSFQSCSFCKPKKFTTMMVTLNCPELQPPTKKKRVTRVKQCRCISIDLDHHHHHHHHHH
Experimental: Clear polystyrene plates (BEAVER) were coated with 100 μl/well of a […] hGREM1 (ACRO) and mouse gremlin (R&D) in high pH coating buffer overnight at 4° C. Then the plates were washed once on an automatic plate washer using PBS+0.1% Tween 20 (Sigma). 100 μl of block solution consisting of PBS+1% BSA+1% normal goat serum+0.5% Tween 20 (Sigma) was added to each well and incubated at room temperature for 2 hours. Then 100 μl of antibodies in antibody dilution buffer containing PBS+1% BSA+1% normal goat serum+0.01% Tween 20 starting from 2 μg/ml and then serial dilutions were added to each well of the plate and incubated for 1 hours at room temperature. Afterward the plates were washed three times with 200 μl of PBS+0.1% Tween20 followed by adding 100 μl/well 1:10000 Goat anti mouse IgG-HRP (abcam), and incubate for 1 hour at room temperature. They were then washed 3× with PBS+0.1% Tween20. Finally, 100 µl/well of TMB (Pierce) was added to each well and after several minutes add 50 μl of stop solution to each well. The plates were read on a Multiscan FC microplate reader (Thermo Scientific) at […].

HGREM1-His (ACRO) [2] = target: T1, HGREM1-His (ACRO); test: blocking ELISA, Human Gremlin-1 binding to FGFR1
Experimental: Next, 0.25 μg/ml of gremlin was selected to test the blocking activity. The ability of antibodies to block Gremlin binding to human FGFR1-Fc was examined via ELISA. Plates were coated with recombinant FGFR1-Fc (2 μg/ml) overnight and then serial dilutions of antibodies were incubated with 0.25 μg/ml of human Gremlin-his modified for 1 h at RT before this complex was added to coated plates and allowed to incubate for an additional hour at RT. The plates were then washed and added with anti-his HRP (GenScript). Plates were then developed with a TMB solution and stopped by adding stop solution. The plates were read on a plate reader at 450 nm. […] Humanized anti-GREM1 antibodies provided herein (e.g., Hu14E3, Hu22F1) are expected to show the similar technical effect as their chimeric counterparts in blocking the binding of hGREM1 to FGFR1.

HGREM1-His (ACRO) [3] = target: T1, HGREM1-His (ACRO); test: ELISA on coated Gremlin-his (column Gremlin)
Experimental: Binding affinities to hGREM1 and XM5 were also compared. Briefly, XM5-Fc or Gremlin-his […] was coated. 100 μl of block solution consisting of PBS+1% BSA+1% normal goat serum+0.5% Tween 20 (Sigma) was added to each well and incubated at room temperature for 2 hours. 4-fold serial antibody dilution from 2 μg/ml were added. Afterward the plates were washed three times with 200 ul of PBS+0.1% Tween20 followed by adding 100 μl/well 1:10000 Goat anti mouse IgG-HRP (abeam), and incubate for 1 hour at room temperature. They were then washed 3× with PBS+0.1% Tween20. Finally, 100 μl/well of TMB (InnoReagents) was added to each well and after 2 minutes add 50 ul of stop solution to each well. The plates were read on a Multiscan FC microplate reader (Thermo Scientific) at […]. The EC50 values were show in table below.

HGREM1-His (ACRO) [4] = target: T1, HGREM1-His (ACRO); test: blocking ELISA, Human Gremlin-1 binding to BMP4; column Percentage
Experimental: In addition, the ability of serial dilutions of antibodies provided herein to block Gremlin binding to human BMP2/4/7 was also examined via ELISA. Plates were coated with recombinant human BMP2/4/7 (0.5 μg/ml) overnight and then serial dilutions of antibodies were incubated with 1 μg/ml of human Gremlin-his modified for 1 h at RT before this complex was added to coated plates and allowed to incubate for an additional hour at RT. The plates were then washed and added with anti-his HRP (GenScript). Plates were then developed with a TMB solution and stopped by adding stop solution. The plates were read on a plate reader at 450 nm. […] The chimeric anti-gremlin 1 antibodies (69H5-chi) and chimeric anti-gremlin 1 antibodies (22F1-chi) also can inhibit the binding of gremlin to BMP2 and BMP4 (see, FIG. 3E and FIG. 3F). The chimeric anti-gremlin 1 antibodies (56C11-chi) can inhibit the binding of gremlin to BMP2 (see, FIG. 3E).

B1: 36F5 (antibody, V domains shown)
VH: QVQLQQSGAELARPGASVKLSCKASGYSFTSSGIGWVKQRSGQGLEWIGEIYPRSGNTYNNEKFKGKATLTADKSSSTVYMELRSLTSEDSAVYFCVREAYSHHYYAMDYWGQGTSVTVFS
VL: DVLMTQTPLSLPVSLGGQASISCRSSQSLLHSNGNTYLEWYLQKPGQSPKLLIYKVSNRFSGVPDRLSGSGSGTDFTLKISRVEAEDLGVYYCFQGSHVPFTFGSGTKLEIN
notes: mouse hybridoma antibody; also called hybridoma 36F5
- EC50 (HGREM1-His (ACRO) [1]): 0.0309 nM
- EC50 (Mouse Gremlin-His (R&D)): 0.00456 µg/mL
- IC50 (HGREM1-His (ACRO) [2]): 1.84 µg/mL
- EC50 (HGREM1-His (ACRO) [3]): 0.0147 µg/mL
- IC50 (HGREM1-His (ACRO) [4]): 0.512 µg/mL
